{"source": "paper PMC11643816", "about": "“Determination of Lactoferrin Using High-Frequency Piezoelectric Quartz Aptamer Biosensor Based on Molecular Bond Rupture”", "key": {"[1]": {"biological_target": "T1, alpha-lactalbumin (UniProt P00711)", "T1 sequence": "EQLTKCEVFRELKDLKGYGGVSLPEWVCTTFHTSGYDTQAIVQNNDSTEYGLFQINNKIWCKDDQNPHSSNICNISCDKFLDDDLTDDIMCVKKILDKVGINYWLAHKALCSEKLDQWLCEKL", "test": "QCM bond rupture sandwich", "conditions": "100 ng/mL; sandwich with aptamer II beads; 5'-SH-(CH2)6; 30 °C, 70 min per binding step; aptamer I 3 μmol/L on gold with MCH block; aptamer II beads stored in 10 mmol/L PBS; binding buffer, salt and pH not stated"}, "[2]": {"biological_target": "T2, lactoferrin (LF) (UniProt P24627 20-708)", "T2 sequence (P24627 20-708)": "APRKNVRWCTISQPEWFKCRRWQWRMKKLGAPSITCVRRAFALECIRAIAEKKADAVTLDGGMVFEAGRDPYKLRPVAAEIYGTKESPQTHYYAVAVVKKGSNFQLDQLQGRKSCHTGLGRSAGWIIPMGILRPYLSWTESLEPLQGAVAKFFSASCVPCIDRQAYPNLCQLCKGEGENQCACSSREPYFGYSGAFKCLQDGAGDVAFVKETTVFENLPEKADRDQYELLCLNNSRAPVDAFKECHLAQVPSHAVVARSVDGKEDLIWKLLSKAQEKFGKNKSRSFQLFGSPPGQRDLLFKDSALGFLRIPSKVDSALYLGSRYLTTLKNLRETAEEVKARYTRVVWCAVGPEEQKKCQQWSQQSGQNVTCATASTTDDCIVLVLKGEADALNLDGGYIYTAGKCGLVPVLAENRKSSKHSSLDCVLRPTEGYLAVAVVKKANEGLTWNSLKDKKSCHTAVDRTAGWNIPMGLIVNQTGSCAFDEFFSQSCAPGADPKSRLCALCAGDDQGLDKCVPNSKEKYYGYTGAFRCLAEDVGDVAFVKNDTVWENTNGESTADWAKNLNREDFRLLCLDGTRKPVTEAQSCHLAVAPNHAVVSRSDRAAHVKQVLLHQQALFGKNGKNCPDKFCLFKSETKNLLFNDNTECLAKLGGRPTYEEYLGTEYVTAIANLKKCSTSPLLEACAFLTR", "test": "QCM bond rupture sandwich; cyclic voltammetry; aptamer II on magnetic beads, LF captured by aptamer I; 1180 Hz shift at 100 ng/mL LF; 30 °C, 70 min per binding step; aptamer I 3 μmol/L on gold with MCH block; aptamer II beads stored in 10 mmol/L PBS; binding buffer, salt and pH not stated", "conditions": "protein: commercial"}, "[3]": {"biological_target": "T2, lactoferrin (LF)", "test": "QCM bond rupture sandwich; cyclic voltammetry; aptamer I on gold, 100 ng/mL LF; 30 °C, 70 min per binding step; aptamer I 3 μmol/L on gold with MCH block; aptamer II beads stored in 10 mmol/L PBS; binding buffer, salt and pH not stated", "conditions": "protein: commercial"}}}
{"molecule": "TGGTGCTGCCCCTAGTCTCCGGCTGCTTCTTGG [aptamer I]", "values": [{"measurement": "binding signal (% of LF signal)", "setting": "[1]", "result": 8.39}]}
{"molecule": "AGGCAGGACACCGTAACCGGTGCATCTATGGCTACTAGCTTTTCCTGCCT (ssDNA, 5'-SH-(CH2)6 as printed)", "note": "[aptamer II]", "values": [{"measurement": "binding result", "setting": "[2]", "result": "binds"}]}
{"molecule": "TGGTGCTGCCCCTAGTCTCCGGCTGCTTCTTGG (ssDNA, 5'-SH-(CH2)6)", "note": "[aptamer I]", "values": [{"measurement": "binding result", "setting": "[3]", "result": "binds"}]}
